B1: 176H4 (antibody, V domains shown)
VH: QVQLVESGGGVVQPGRSLRLSCAASGFTFSSYGMHWVRQAPGKGLEWVAIIWYDGSYKYYADSVKGRFTISRDNSKNTLYLQMSSLRAEDTAVYYCARDAHDFWSGYFAYWGQGALVTVSS
VL: DIVMTQTPLSLSVTPGQPASISCKSSQSLLHGDGKTYLYWYLQKPGQPPQLLIYEVSNRFSGVPDRFSGSGSGTDFTLKISRVEAEDVGIYYCMQSIQIPWTFGQGTRVEIK
notes: mAb
B2: 22G5 (antibody, V domains shown)
VH: EVQLLESGGGLVQPGGSLRLSCAASGFTFSSYAMNWVRQAPGMGLEWVSVISRSGGYTYYADSVKGRFTISRDNSKNTLYLQMNSLRAEDTAVYYCASRLAVAGSEAFDIWGQGTLVTVSS
VL: DIQMTQSPSSLSASVGDRVTITCRASQNISSYLNWYQQKQGKAPKLLIYAASSLQNGVPSRFSGRGSGTDFTLTISSLQPEDFATYYCQQSYRTPLFTFGPGTKVDFK
notes: Tested as hybridoma supernatant at normalized concentration
B3: 54E9 (antibody, V domains shown)
VH: QVQLVQSGAEVKKPGASVKVSCKASGYTFNSYGISWVRLAPGQGLEWMGWISAYNGNTKNAQKLQGRVTMTTDTSTSTAYMELRSLRSDDTAVYYCARHDFWSGYYKGMDVWGQGTTVTVSS
VL: not shown
notes: as for B2
B4: 194A4 (antibody, V domains shown)
VH: QVQLVQSGTEVKKPGASLKVSCKASGYTFTVYYLNWVRQAPGQGLEWMGWINPNSGGTNYAQKFQGRVTMTRDTSISTAYMELSRLRSDDTAVYYCARGYDILTGWGQGTLVTVSS
VL: EIVLTQSPGTLSLSPGERATLSCRASRGVSNIYLAWYQQKPGQAPRLLIYGASNRATGIPDRFSGSGSGTDFTLTISRLEPEDFAVYYCQHNDYSMFTFGPGTKVDIK
notes: mAb
B5: 194C10 (antibody, V domains shown)
VH: QVQLQQWGAGLLKPSETLSLTCAVSGGSFRYYYWSWIRQPPGKGLEWFGEINHSGSTNYNPSLKSRVTISIDTSKNQFSLKLRSVTAADTAVYYCARDYGAFDIWGQGTMVTVSS
VL: EIVLTQSPGTLSLSPGERATLSCRASPSVNSGYLAWYQQKPGQTPRLLIFGASSRATGIPDRFSASGSGADFTLTISRLEPEDFAVYFCQQYESSPWTFGQGTKVEIK
notes: mAb
B6: 190F8 (antibody, V domains shown)
VH: QVQLVESGGGVVQPGRSLRLSCAASGFTFSTYGMHWVRQAPGKGLEWVAVIWYDGSNKNYADSVKGRFTISRDNSKNTLYLQMNSLRAEDTAVYYCARDQGVGYDGLDVWGQGTTVTVSS
VL: DIQMTQSPSSLSASVGDRVTITCRTSQGIGNYLAWFQQKPGKAPKSLLYKASSLQSGVPSKFSGSGSGTDFTLTISSLQPEDFATYYCQQYMTYPLTFGGGTKVEIK
notes: mAb
B7: 197G3 (antibody, V domains shown)
VH: QVQLVESGGGVVQPGRSLRLSCVASGFTFSSHGMHWVRQAPGKGLEWVAVIWYDGSNKNYADSVKGRFTISRDNSKNTLYLQMNSLRAEDTAVYYCARDPSVGYDGMDVWGQGTTVTVSS
VL: DIQMTQSPSSLSASVGDRVTITCRASQGIGNHLAWFQQKPGKAPKSLIYAASSLQSGVPSKFSGSRSGTDFSLTISSLQPEDFATYYCQQYSNYPVTFGPGTKVDIK
notes: mAb
B8: 194C1 (antibody, V domains shown)
VH: QVQLVESGGGVVQPGRSLRLSCAASGFTFSSYGMHWVRQAPGKGLEWVAVIWYDGSNEHYADSVKGRFTISRDNSKNTLYLQMNSLRAEDTAVYYCARNRGVGYYGLDVWGQGTTVTVSS
VL: DIQMTQSPSSLSASVGDRVTITCRASQGISNYLAWFQQKPGKAPKSLIYAASSLQSGVPSKFSGSGSGTDFTLTISSLQPEDFATYYCLHYLTYPLTFGGGTKVEIK
notes: mAb
B9: 198G3 (antibody, V domains shown)
VH: QVQLVESGGGVVQPGRSLKLSCAASGFTFSTYGMHWVRQAPGKGLEWVAVIWYDGTNKNYADSVKGRFTISRDNSKNTLCLQMNSLRAEDTAVYYCARDQGVGYDGLDVWGQGTTVTVSS
VL: DIQMAQSPSSLSASVGDRVTITCRTSQGIGKYLAWFQQKPGKAPKSLLYKASSLQGGVPSKFSGSGSGTDFTLTISSLQPEDFATYYCQQYMTYPLTFGGGTKVEIK
notes: mAb
B10: 191G10 (antibody, V domains shown)
VH: QVQLVESGGGVVQPGRSLRLSCAASGFTFSSYGMHWVRQAPGKGLEWVAVIWYDGSNKNYADSVKGRFTISRDNSKNTLYLQMNSLRAEDTAVYYCARDQGVGYDGLDVWGQGTTVTVSS
VL: DIQMTQSPSSLSASVGDRVTITCRTSQGIGKYLAWFQQKPGKAPKSLLYKVSSLQSGVPSKFSGSGSGTDFTLTISSLQPEDFATYYCQQYMTYPLTFGGGTKVEIK
notes: mAb
B11: 191G1 (antibody, V domains shown)
VH: QVQLVESGGGVVQPGRSLRLSCAASGFTFSSYGMHWVRQAPGKGLEWVAVIWYDGSNEHYADSVKGRFTISRDNSKNTLYLQMNSLRAEDTAVYYCARDRGVGYYGLDVWGQGTTVTVSS
VL: DIQMTQSPSSLSASVGDRVTITCRASQGISNYLAWFQQKPGKAPKSLIYAASSLQSGVPSKFSGSGSGTDFTLTISSLQPEDFATYYCQHYLTYPLTFGGGTKVEIK
notes: mAb
B12: 193E7 (antibody, V domains shown)
VH: QVQLQQWGAGLLKPSETLSLTCAVYGGSFSGYFWTWIRQPPGKGLEWIGEINHSGSTNYNPSLKSRVTISVDTSKNQFSLKLSSVTAADTAVYYCARDYGADYWGQGTLVAVSA
VL: DIQMTQSPSSLSASVGDRVTITCRASQGIRNDLGWYQQKPGKAPKRLIYSASSLQRGVPSRFSGSGSGTEFTLTISSLQPEDFATYYCLQHKRYPLTFGGGTKVEIK
notes: as for B2
B13: 193E7 (antibody, V domains shown)
VH: QVQLQQWGAGLLKPSETLSLTCAVYGGSFSGYFWTWIRQPPGKGLEWIGEINHSGSTNYNPSLKSRVTISVDTSKNQFSLKLSSVTAADTAVYYCARDYGADYWGQGTLVAVSA
VL: DIQMTQSPSSLSASVGDRVTITCRASQGIRNDLGWYQQKPGKAPKRLIYSASSLQRGVPSRFSGSGSGTEFTLTISSLQPEDFATYYCLQHKRYPLTFGGGTKVEIK
notes: mAb
B14: 5E5 (antibody, V domains shown)
VH: QVQLVESGGGVVQPGRSLRLSCAASGFTFSNYVMHWVRQAPGKGLEWVAVIWYDGSNKYYADSVKGRFTISRDNSKNTLYLQMNSLRAEDTAVYYCTREVYSSGWYDYGMDVWGQGTTVTVSS
VL: DIQMTQSPSSLSASVGDRVTITCRASQGIRNDLGWYQQKPGKAPKRLIYAASSLQSGVPSRFSGSGSGTEFTLTISSLQPEDFATYYCLQHYSYPRTFGQGTKVEVK
notes: as for B2
B15: 75G3 (antibody, V domains shown)
VH: QVQLQQWGAGLLKPSETLSLTCAVYGGSLSGSYWSWIRQPPGKGLEWIGEINLSGSTNYNPSLKSRVTISVDTSKSQFSLTLRSVTAADTAVYYCARDYGGLDYWGQGTLVTVSS
VL: EIVLTQSPGTLSLSPGERATLSCRARQNVDSSYLAWYQQKPGQAPRLLIYGASSRATGIPDRFSGSGSGTDFTLTISRLEPEDFAVFYCQQYERSPWTFGQGTKVEIK
notes: mAb
B16: 218G4 (antibody, V domains shown)
VH: QVQLVESGGGVVQPGRSLRLSCAASGFTFSSYGLHWVRQAPGKGLEWVAVIWYDGSNKYYADSVKGRFTISRDNSKNTLYLQMNSLRVEDTAVYYCANWYYYYYGMDVWGQGTTVTVSS
VL: QSVLTQPPSVSAAPGQKVTISCSGSSSNIGNNYVSWYQQLPGTAPKLLLYDSNKRPSGIPARFSGSKSGTSATLGITGLQTGDEADYYCGTWDSSLNTVVFGGGTKLTVL
notes: mAb

Assays:
[1] = molecular target: T1, soluble human ASGR-1 carbohydrate binding domain (CBD; amino acid residues 154-281; N-terminal 6xHis tag) (human, UniProt P07306 154-281); assay: Octet BLI, mAb on AR2G tips, 1:1 fit
T1 construct: also called ASGR-1 CBD
T1 sequence: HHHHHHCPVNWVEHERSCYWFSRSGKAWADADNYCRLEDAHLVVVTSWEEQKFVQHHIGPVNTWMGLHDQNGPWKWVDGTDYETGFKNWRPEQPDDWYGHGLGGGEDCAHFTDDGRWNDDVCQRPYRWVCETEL
Excerpt: To quantitate the binding affinity of specific antibodies for ASGR-1 (either purified from hybridoma supernatants or made recombinantly), association and dissociation rates can be measured using a ForteBio Octet instrument. […] Experimental kinetic results were globally fit to a 1:1 binding model in order to determine the association and dissociation rate constants as well as the equilibrium dissociation constant. Association and dissociation times were chosen to ensure that curvature was present during association curves and measured dissociation levels dropped at least 5% from starting levels. All Octet buffers contained 10 mM Tris (pH7.5), 150 mM NaCl, 1 mM CaCl₂), 0.10 mg/ml BSA and 0.13% Triton X-100. Octet assays were run at 27° C. Because this assay only measures binding to the ASGR-1 CBD, antibodies that recognize epitopes partially or entirely outside the CBD and/or recognize ASGR-1 in the context of a native ASGR complex, for example, as could occur on cell membranes, may not score as positive in this assay.

Mouse ASGR-1 = molecular target: T2, Mouse ASGR-1 (mouse, UniProt P34927 1-284); assay: FACS on transfected HEK 293 cells or membrane preps on beads; binding = signal at least 2x irrelevant IgG
T2 construct: Expressed on HEK 293 cells or as membrane prep on beads; cDNA GenBank BC022106.1; also called muASGR-1; mASGR-1
T2 sequence: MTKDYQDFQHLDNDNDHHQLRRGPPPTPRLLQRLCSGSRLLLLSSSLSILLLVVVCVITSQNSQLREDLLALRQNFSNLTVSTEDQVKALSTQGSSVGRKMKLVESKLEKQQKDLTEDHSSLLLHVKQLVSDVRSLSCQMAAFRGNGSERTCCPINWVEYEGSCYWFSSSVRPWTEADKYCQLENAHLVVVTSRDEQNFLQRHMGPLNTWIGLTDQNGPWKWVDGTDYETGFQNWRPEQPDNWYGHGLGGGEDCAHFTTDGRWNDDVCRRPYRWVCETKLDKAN
Description: Human ASGR-1-specific, ligand competing antibody samples were tested for binding to ASGR-1 from other species (cynomologus monkey ASGR-1, mouse ASGR-1, rat ASGR-1, dog ASGR-1, and pig ASGR-1) as well as to human ASGR-2 in FACS binding assays at normalized antibody concentrations. For cell-based assays, HEK 293 cells expressing the appropriate antigen of interest were mixed with antibody sample or controls, incubated for 1 hour at 4° C., and then washed twice. Cells with bound antibody were then incubated with Alexa Fluor® 647 IgG Fc fragment-specific detection antibody and 7-AAD viability stain for 15 minutes at 4° C., washed once and resuspended in FACS buffer. Samples were analyzed using a BD Accuri™ Flow Cytometer and an Intellicyt HyperCyt Autosampler. As a negative control, supernatants and controls were also screened against HEK 293 cells transfected with empty parental vector. […] For membrane-prep binding assays, ASGR-1 species specific membrane preps were used to coat LumAvidin® microspheres (beads) and tested for binding to selected hybridoma supernatants or controls. Briefly, ASGR-1 species specific membrane preps were incubated with streptavidin-coated LumAvidin® beads for 45 minutes in the dark at room temperature and washed twice. Beads were resuspeneded in FACS buffer containing Stabilguard®. Antigen-bound beads were then incubated with normalized antibody sample for 1 hour in the dark at room temperature, washed twice, incubated with Alexa Fluor® 488 IgG Fc fragment-specific detection antibody for 15 minutes in the dark at room temperature, washed once and finally resuspended in FACS buffer. Samples were analyzed using an Intellicyt iQue™ Screener Platform. FACS buffer supplemented with 1 mM Calcium Chloride was used in all steps. As a negative control, supernatants and controls were also screened against a non-ASGR-1 antigen membrane prep coated on the LumAvidin® beads.

| Binder | Kd [1] [pM] | binding result (Mouse ASGR-1) |
| --- | --- | --- |
| B1 | 800 | – |
| B2 | – | no binding |
| B3 | – | no binding |
| B4 | 700 | – |
| B5 | 4000 | – |
| B6 | 600 | – |
| B7 | 800 | – |
| B8 | 1300 | – |
| B9 | 40 | – |
| B10 | 500 | – |
| B11 | 2400 | – |
| B12 | – | no binding |
| B13 | 3500 | – |
| B14 | – | no binding |
| B15 | 1000 | – |
| B16 | 2600 | – |

From patent publication US20190248902A1 (published 2019)
